Assay results as given in patent US6958236B2, “Control of gene expression in plants” (priority 2000, dated 2005).

Tested on: pCGS154 reporter
Assay: Transient transfection of S2 Drosophila cells with luciferase reporter and EcR receptor plasmids
Type: cell-based
Procedure: An in vivo cell based assay is designed to measure transcriptional activation by the receptors of a reporter plasmid. S2 Drosophila cells (ATCC CRL-1963) are transiently transfected with luciferase reporter and receptor expression plasmids using the calcium phosphate precipitation procedure (Di Nocera and David (1983) PNAS 80, 7095-7098). S2 cells are plated in 96 well format at a density of 2×10^5 in 166.6 μl of Schneider's Drosophila media supplemented with antibiotics and 10% heat inactivated fetal bovine serum (GIBO-BRL). The following day, 33.4 μl of a calcium phosphate precipitate containing 3-6 ng of pCGS154 reporter plasmid, 3-6 ng of EcR receptor plasmid along with salmon sperm DNA to a total of 400 ng DNA per well is added. Chemical ligands are added 16-24 hours after DNA addition to the cells. Cells are then harvested and extracted 24 hours after chemistry addition following the procedures for the luciferase assay by centrifuging and resuspending the cell pellets in 100 μl of cell culture lysis reagent (Promega). Luciferase activity is quantitated using chemiluminescence (Promega) using an analytical luminescence model 2001 luminometer.
S2 cells contain Drosophila EcR and USP. The endogenous USP can be used as the heterodimerization partner for EcR or exogenous USP expression plasmid can be added to the assay.
To compare the activities of Manduca and Drosophila EcR, S2 cells are transiently transfected using the above procedure with the reporter plasmid pCGS 154 and either full-length Drosophila EcR, DDV, full-length Manduca EcR, or MMV. Tebufenozide at 0.2 µM and 2 μM is used as the chemical ligand. Luciferase assays are performed as described above. All of the results are normalized as a ratio of activity to the light unit value for the pCGS154 reporter without chemistry.
The activities of the EcR-VP16 chimeras are compared by transiently transfecting S2 cells as described in Example 3. Tebufenozide is added to the cells at 0.2 μM concentration. Results are expressed as fold activation, a ratio of the activity of the constructs with chemistry added as compared to activity of the constructs without chemistry. All results are normalized to the luciferase activity of the pCGS154 reporter without receptor addition.
(§1) The activities of the EcR-VP16 chimeras are compared by transiently transfecting S2 cells as in Example 3. Tebufenozide is added to the cells at 0.2 μM concentration. Results are expressed as fold activation of constructs with chemistry as compared to without chemistry. All results are normalized to the luciferase activity of the pCGS154 reporter without receptor.
as §1, with “chemistry addition.” for “chemistry.”

[1] = Example 6, 0.2 μM tebufenozide vs without chemistry, normalized to pCGS154 reporter without receptor

Row | Molecule | Fold Activation With Chemistry Assay #1 (Example 7, 0.2 μM tebufenozide) | Fold Activation With Chemistry Assay #2 (Example 7, 0.2 μM tebufenozide) | Fold Activation With Chemistry Assay #1 (Example 8, 0.2 μM tebufenozide) | Fold Activation With Chemistry Assay #2 (Example 8, 0.2 μM tebufenozide) | Assay # 1 Fold Activation With Chemistry [1] | Assay # 2 Fold Activation With Chemistry [1] | Fold Activation With Chemistry (Example 6, third column (LLV, LMV), 0.2 μM tebufenozide)
1 | MBV: EcR chimera: Manduca sexta C+D domains, black cutworm (Agrotis ipsilon) E domain, VP16; SEQ ID NO:65-66 (protein) MGREELSPASSINGCSTDGEPRRQKKGPAPRQQEELCLVCGDRASGYHYNALTCEGCKGFFRRSVTKNAVYICKFGHACEMDMYMRRKCQECRLKKCLAVGMRPECVVPESTCKNKRREKEAQREKDKLPVSTTTVDDHMPAIMQCDPPPPEAARIHEVVPRFLTEKLMEQNRLKNVTPLSANQKSLIARLVWYQEGYEQPSEEDLKRVTQTWQSDEDEEESDMPFRQITEMTILTVQLIVEFAKGLPGFAKISQSDQITLLKACSSEVMMLRVARRYDAATDSVLFANNQAYSRDNYRKAGMSYVIEDLLHFCRCMYSMMMDNVHYALLTAIVIFSDRPGLEQPLLVEEIQRYYLNTLRVYILNQNSASPRCPVVFAKILGILTELRTLGMQNSNMCISLKLKNRKLPPFLEEIWDVESRGKLAPPTDVSLGDELHLDGEDVAMAHADALDDFDLDMLGDGDSPGPGFTPHDSAPYGALDMADFEFEQMFTDALGIDEYGG | 215.7 fold | 211.1 fold | 559.1 fold | 866.7 fold |  |  | 
2 | MFV: EcR chimera: Manduca sexta C+D domains, fall armyworm (Spodoptera frugiperda) E domain, VP16; SEQ ID NO:69-70 (protein) MGREELSPASSINGCSTDGEPRRQKKGPAPRQQEELCLVCGDRASGYHYNALTCEGCKGFFRRSVTKNAVYICKFGHACEMDMYMRRKCQECRLKKCLAVGMRPECVVPESTCKNKRREKEAQREKDKLPVSTTTVDDHMPAIMQCDPPPPEAARIHEVVPRFLTEKLMEQNRLKNVTPLSANQKSLIARLVWYQEGYEQPSEEDLKRVTQTWQLEEEEEEETDMPFRQITEMTILTVQLIVEFAKGLPGFSKISQSDQITLLKASSSEVMMLRVARRYDAATDSVLFANNQAYTRDNYRKAGMSYVIGDLLHFCRCMYSMSMDNVHYALLTAIVIFSDRPGLEQPLLVEEIQRYYLKTLRVYILNQYSASPRCAVLFGKILGVLTELRTLGTQNSNMCISLKLKNRKLPPFLEEIWDVKLAPPTDVSLGDELHLDGEDVAMAHADALDDFDLDMLGDGDSPGPGFTPHDSAPYGALDMADFEFEQMFTDALGIDEYGG | 159.9 fold | 175.4 fold |  |  |  |  | 
3 | MEV: EcR chimera: Manduca sexta C+D domains, European corn borer (Ostrinia nubilalis) E domain, VP16; SEQ ID NO:67-68 (protein) MGREELSPASSINGCSTDGEPRRQKKGPAPRQQEELCLVCGDRASGYHYNALTCEGCKGFFRRSVTKNAVYICKFGHACEMDMYMRRKCQECRLKKCLAVGMRPECVVPESTCKNKRREKEAQREKDKLPVSTTTVDDHMPAIMQCDPPPPEAARIHEVVPRFLTEKLMEQNRLKNVTPLSANQKSLIARLVWYQDGYEQPSEEDLKRVTQTWQSADEEDEDSDMPFRQITEMTILTVQLIVEFAKGLPGFSKISQPDQITLLKACSSEVMMLRVARRYDAVSDSVLFANNQAYTRDNYRKAGMAYVIEDLLHFCRCMYSMSMDNVHYALLTAIVIFSDRPGLEQPQLVEEIQRYYLNTLRVYIMNQHSASPRCAVIYAKILSVLTELRTLGMQNSNMCISLKLKNRKLPPFLEEIWDVKLAPPTDVSLGDELHLDGEDVAMAHADALDDFDLDMLGDGDSPGPGFTPHDSAPYGALDMADFEFEQMFTDALGIDEYGG | 363.7 fold | 131.5 fold |  |  |  |  | 
4 | MLV: EcR chimera: Manduca sexta C+D domains, Locusta migratoria E domain, VP16; SEQ ID NO:85-86 (protein) MGREELSPASSINGCSTDGEPRRQKKGPAPRQQEELCLVCGDRASGYHYNALTCEGCKGFFRRSVTKNAVYICKFGHACEMDMYMRRKCQECRLKKCLAVGMRPECVVPESTCKNKRREKEAQREKDKLPVSTTTVDDHMPAIMQCDPPPPEAARIHEVVPRFLTEKLMEQNRLKNVTPLSANQKSLIARLVWYQNEYESPSEEDLRRVTSQPTEGEDQSDVRFRHITEITILTVQLIVEFAKRLPGFDKLLREDQIALLKACSSEVMMFRMARRYDVNSDSILFANNQPYTKDSYNLAGMGETIEDMLRFCRQMYAMKVDNAEYALLTAIVIFSERPSLVEGWKVEKIQEIYLEALKAYVDNRRRPKSGTIFAKLLSVLTELRTLGNQNSEMCFSLKLKNKKLPPFLAEIWDVIPKLAPPTDVSLGDELHLDGEDVAMAHADALDDFDLDMLGDGDSPGPGFTPHDSAPYGALDMADFEFEQMFTDALGIDEYGG | 1.7 fold | 1.0 fold |  |  |  |  | 
5 | MDV: EcR chimera: Manduca sexta C+D domains, Drosophila melanogaster E domain, VP16 activation domain; SEQ ID NO:63-64 (protein) MGREELSPASSINGCSTDGEPRRQKKGPAPRQQEELCLVCGDRASGYHYNALTCEGCKGFFRRSVTKNAVYICKFGHACEMDMYMRRKCQECRLKKCLAVGMRPECVVPESTCKNKRREKEAQREKDKLPVSTTTVDDHMPAIMQCDPPPPEAARIHEVVPRFLTEKLMEQNRLKNVTPLSANQKSLIARLVWYQDGYEQPSEEDLRRIMSQPDENESQTDVSFRHITEITILTVQLIVEFAKGLPAFTKIPQEDQITLLKACSSEVMMLRMARRYDHSSDSIFFANNRSYTRDSYKMAGMADNIEDLLHFCRQMFSMKVDNVEYALLTAIVIFSDRPGLEKAQLVEAIQSYYIDTLRIYILNRHCGDSMSLVFYAKLLSILTELRTLGNQNAEMCFSLKLKNRKLPKFLEEIWDVHAIPPKLAPPTDVSLGDELHLDGEDVAMAHADALDDFDLDMLGDGDSPGPGFTPHDSAPYGALDMADFEFEQMFTDALGIDEYGG | 1.1 fold | 1.1 fold |  |  | 1.20 fold | 1.18 fold | 
6 | LLV: EcR chimera: Locusta migratoria C+D and E domains, VP16; SEQ ID NO:81-82 (protein) MGREDLSPLSSLNGYSADSCDAKKKKGAAPRQQEELCLVCGDRASGYHYNALTCEGCKGFFRRSITKNAVYQCKYGNNCEIDMYMRRKCQECRLKKCLTVGMRPECVVPEYQCAVKRKEKKAQKDKDKPNSTTNGSPEVMMLKDIDAKVEPERPLSNGIKPVSPEQEELIHRLVYFQNEYESPSEEDLRRVTSQPTEGEDQSDVRFRHITEITILTVQLIVEFAKRLPGFDKLLREDQIALLKACSSEVMMFRMARRYDVNSDSILFANNQPYTKDSYNLAGMGETIEDMLRFCRQMYAMKVDNAEYALLTAIVIFSERPSLVEGWKVEKIQEIYLEALKAYVDNRRRPKSGTIFAKLLSVLTELRTLGNQNSEMCFSLKLKNKKLPPFLAEIWDVIPKLAPPTDVSLGDELHLDGEDVAMAHADALDDFDLDMLGDGDSPGPGFTPHDSAPYGALDMADFEFEQMFTDALGIDEYGG |  |  |  |  |  |  | 0.47 fold
